In PMC7010293 one finds stoichiometry N data, which are given here for seven substances.

Where “and” joins values, the source holds several entries; their conditions need not be identical. Equal values may be shown once.

What all share (assay): SDS-PAGE under unheated, non-reducing conditions with Western blot
The target of assay [1] is recombinant non-structural protein 1 (rNS1) of Dengue virus serotype 1, 6xHis-tagged (Dengue virus 1, Hawaii A strain).
The target in assay [2] is recombinant non-structural protein 1 (rNS1) of Dengue virus serotype 2, 6xHis-tagged (Dengue virus 2, New Guinea C strain).
The target of assay [3] is recombinant non-structural protein 1 (rNS1) of Dengue virus serotype 3, 6xHis-tagged (Dengue virus 3, Sri Lanka strain).
Assay [4] addresses recombinant non-structural protein 1 (rNS1) of Dengue virus serotype 4, 6xHis-tagged (Dengue virus 4, TC25 strain).
Assay [5] addresses recombinant non-structural protein 1 (rNS1) of Tick-borne encephalitis virus, 6xHis-tagged (Tick-borne encephalitis virus, Neudoerfl strain).
Assay [6] addresses recombinant non-structural protein 1 (rNS1) of West Nile virus, RQ10NK, 6xHis-tagged (West Nile virus, NY99 strain).
Assay [7] addresses recombinant non-structural protein 1 (rNS1) of Zika virus, 6xHis-tagged (Zika virus, SPH2015 strain).

By stoichiometry N is commonly meant a count of units in the complex or per binding partner.

For “recombinant non-structural protein 1 (rNS1) of Dengue virus serotype 1, 6xHis-tagged (natural protein)”, in assay [1], the stoichiometry N was determined as 2.

For “recombinant non-structural protein 1 (rNS1) of Dengue virus serotype 2, 6xHis-tagged (natural protein)”, the stoichiometry N in assay [2] was found to be 2.

Consider “recombinant non-structural protein 1 (rNS1) of Dengue virus serotype 3, 6xHis-tagged (natural protein)”, for which the stoichiometry N in assay [3] is 2.

For “recombinant non-structural protein 1 (rNS1) of Dengue virus serotype 4, 6xHis-tagged (natural protein)”, the stoichiometry N in assay [4] came to 2.

Turning to “recombinant non-structural protein 1 (rNS1) of Tick-borne encephalitis virus, 6xHis-tagged (natural protein)”, the stoichiometry N in assay [5] is 2 and 6.

“recombinant non-structural protein 1 (rNS1) of West Nile virus, RQ10NK, 6xHis-tagged (natural protein)”: the stoichiometry N in assay [6] came to 2.

“recombinant non-structural protein 1 (rNS1) of Zika virus, 6xHis-tagged (natural protein)”: the stoichiometry N in assay [7] amounted to 2.
